1 variant from IntAct's records for PubMed 10835346 can be followed below.

B1: Dolichol phosphate-mannose biosynthesis regulatory protein (Rattus norvegicus (Rat)), Q9Z325 (parent)
chain: MATGTDQAVGFGLVAVSLIIFTYYTTWVILLPFIDSQHVIHKYFLPRAYAVLLPLAAGLLLLLFVGLFITYVLLKSQKVTKKAQ
partner: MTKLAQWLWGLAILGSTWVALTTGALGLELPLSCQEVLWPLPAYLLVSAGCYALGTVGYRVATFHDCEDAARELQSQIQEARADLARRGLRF

The variants in this test derive from B1. The following applies: with dpm3_human DPM3, Q9P2X0.
As to MATGTDQAVGFGLVAVSLIILTSYTTWVILLPFIDSQHVIHKYFLPRAYAVLLPLAAGLLLLLFVGLFITYVLLKSQKVTKKAQ [F21L;Y23S], the “effect of a mutation on the interaction” value is reported as “decreasing interaction”.
